In patent US20220145343A1 (priority 2019, published 2022):

Columns and labels:
Assay in all cases: purified protein, by the assay type
[1] = system: CC(=O)N[C@H]1[C@H]([C@H](O)[C@H](O)CO)O[C@@](OCCCNC(=O)OCc2ccccc2)(C(=O)O)C[C@@H]1O[C@H]1O[C@H](CO[C@]2(C(=O)O)C[C@H](O)[C@@H](NC(C)=O)[C@H]([C@H](O)[C@H](O)CO)O2)[C@H](O)[C@H](O)[C@H]1O; conditions: other: apparent, varying acceptor, 2 mM UDP-Gal, pH 6.5, 30° C.
[2] = system: CC(=O)N[C@H]1[C@H]([C@H](O)[C@H](O)CO)O[C@@](OCCCNC(=O)OCc2ccccc2)(C(=O)O)C[C@@H]1O[C@H]1O[C@H](CO[C@]2(C(=O)O)C[C@H](O[C@H]3O[C@H](CO[C@]4(C(=O)O)C[C@H](O)[C@@H](NC(C)=O)[C@H]([C@H](O)[C@H](O)CO)O4)[C@H](O)[C@H](O)[C@H]3O)[C@@H](NC(C)=O)[C@H]([C@H](O)[C@H](O)CO)O2)[C@H](O)[C@H](O)[C@H]1O; conditions: other: apparent, varying acceptor, 2 mM UDP-Gal, pH 6.5, 30° C.
[3] = system: CC(=O)N[C@H]1[C@H]([C@H](O)[C@H](O)CO)O[C@@](OCCCNC(=O)OCc2ccccc2)(C(=O)O)C[C@@H]1O; conditions: other: apparent, varying acceptor, 2 mM UDP-Gal, pH 6.5, 30° C.
[4] = system: CC(=O)N[C@H]1[C@H]([C@H](O)[C@H](O)CO)O[C@@](OC[C@H]2O[C@H](O[C@H]3C[C@](OC[C@H]4O[C@H](O[C@H]5C[C@](OC[C@H]6O[C@H](O[C@H]7C[C@](OC[C@H]8O[C@H](O[C@H]9C[C@](OCCCNC(=O)OCc%10ccccc%10)(C(=O)O)O[C@@H]([C@H](O)[C@H](O)CO)[C@@H]9NC(C)=O)[C@H](O)[C@@H](O)[C@H]8O)(C(=O)O)O[C@@H]([C@H](O)[C@H](O)CO)[C@@H]7NC(C)=O)[C@H](O)[C@@H](O)[C@H]6O)(C(=O)O)O[C@@H]([C@H](O)[C@H](O)CO)[C@@H]5NC(C)=O)[C@H](O)[C@@H](O)[C@H]4O)(C(=O)O)O[C@@H]([C@H](O)[C@H](O)CO)[C@@H]3NC(C)=O)[C@H](O)[C@@H](O)[C@H]2O)(C(=O)O)C[C@@H]1O[C@H]1O[C@H](CO)[C@H](O)[C@H](O)[C@H]1O; conditions: other: apparent, varying acceptor, 10 mM CMP-Neu5Ac, pH 8.0, 30° C.
[5] = system: CC(=O)N[C@H]1[C@H]([C@H](O)[C@H](O)CO)O[C@@](OC[C@H]2O[C@H](O[C@H]3C[C@](OC[C@H]4O[C@H](O[C@H]5C[C@](OC[C@H]6O[C@H](O[C@H]7C[C@](OCCCNC(=O)OCc8ccccc8)(C(=O)O)O[C@@H]([C@H](O)[C@H](O)CO)[C@@H]7NC(C)=O)[C@H](O)[C@@H](O)[C@H]6O)(C(=O)O)O[C@@H]([C@H](O)[C@H](O)CO)[C@@H]5NC(C)=O)[C@H](O)[C@@H](O)[C@H]4O)(C(=O)O)O[C@@H]([C@H](O)[C@H](O)CO)[C@@H]3NC(C)=O)[C@H](O)[C@@H](O)[C@H]2O)(C(=O)O)C[C@@H]1O[C@H]1O[C@H](CO)[C@H](O)[C@H](O)[C@H]1O; conditions: other: apparent, varying acceptor, 10 mM CMP-Neu5Ac, pH 8.0, 30° C.
[6] = system: CC(=O)N[C@H]1[C@H]([C@H](O)[C@H](O)CO)O[C@@](OC[C@H]2O[C@H](O[C@H]3C[C@](OC[C@H]4O[C@H](O[C@H]5C[C@](OCCCNC(=O)OCc6ccccc6)(C(=O)O)O[C@@H]([C@H](O)[C@H](O)CO)[C@@H]5NC(C)=O)[C@H](O)[C@@H](O)[C@H]4O)(C(=O)O)O[C@@H]([C@H](O)[C@H](O)CO)[C@@H]3NC(C)=O)[C@H](O)[C@@H](O)[C@H]2O)(C(=O)O)C[C@@H]1O[C@H]1O[C@H](CO)[C@H](O)[C@H](O)[C@H]1O; conditions: other: apparent, varying acceptor, 10 mM CMP-Neu5Ac, pH 8.0, 30° C.
[7] = system: CC(=O)N[C@H]1[C@H]([C@H](O)[C@H](O)CO)O[C@@](OCCCNC(=O)OCc2ccccc2)(C(=O)O)C[C@@H]1O[C@H]1O[C@H](CO)[C@H](O)[C@H](O)[C@H]1O; conditions: other: apparent, varying acceptor, 10 mM CMP-Neu5Ac, pH 8.0, 30° C.
[8] = system: CC(=O)N[C@H]1[C@H]([C@H](O)[C@H](O)CO)O[C@@](OC[C@H]2O[C@H](O[C@H]3C[C@](OCCCNC(=O)OCc4ccccc4)(C(=O)O)O[C@@H]([C@H](O)[C@H](O)CO)[C@@H]3NC(C)=O)[C@H](O)[C@@H](O)[C@H]2O)(C(=O)O)C[C@@H]1O[C@H]1O[C@H](CO)[C@H](O)[C@H](O)[C@H]1O; conditions: other: apparent, varying acceptor, 10 mM CMP-Neu5Ac, pH 8.0, 30° C.

| Substance | Km [1] [µM] | kcat [1] [s⁻¹] | kcat/Km [1] [M⁻¹ s⁻¹] | Km [2] [µM] | kcat [2] [s⁻¹] | kcat/Km [2] [M⁻¹ s⁻¹] | kcat/Km [3] [M⁻¹ s⁻¹] | kcat [4] [s⁻¹] | kcat [5] [s⁻¹] | kcat [6] [s⁻¹] | Km [7] [µM] | kcat [7] [s⁻¹] | kcat/Km [7] [M⁻¹ s⁻¹] | Km [8] [µM] | kcat [8] [s⁻¹] | kcat/Km [8] [M⁻¹ s⁻¹] |
| --- | --- | --- | --- | --- | --- | --- | --- | --- | --- | --- | --- | --- | --- | --- | --- | --- |
| NmSiaDW galactosyltransferase activity (Neisseria meningitidis) | 890 ± 100 | 8.8 ± 0.4 | 10000 | 100 ± 20 | 5.3 ± 0.2 | 51000 | 47 | – | – | – | – | – | – | – | – | – |
| NmSiaDW sialyltransferase activity (Neisseria meningitidis) | – | – | – | – | – | – | – | 7.03 to 11.9 | 7.03 to 11.9 | 7.03 to 11.9 | 180 ± 40 | 9.76 ± 0.55 | 55000 | 240 ± 40 | 23.1 ± 1.1 | 97000 |
